According to article PMC5199209, “A Cascade of Thermophilic Enzymes As an Approach to the Synthesis of Modified Nucleotides” (Acta Naturae, 2016):

Legend:
[1] = molecular target: T1, TspRK (ribokinase from Thermus sp. 2.9) (Thermus sp. 2.9, UniProt A0A0B0SD75); assay: HPLC of nucleotides (ATP consumption), nonlinear regression with substrate-inhibition equation; format: biochemical; conditions: 1 mM ATP, 5 mM MgCl2, 50 mM KCl, 10 mM KH2PO4, pH 8.0, 75 °C; substrate inhibition by binding of a second molecule; second site
T1 construct: gene rbsK; full-length, six-histidine tag (pET-23d+, NcoI/XhoI), codon-optimized synthetic gene; E. coli host
T1 sequence (A0A0B0SD75 1-301): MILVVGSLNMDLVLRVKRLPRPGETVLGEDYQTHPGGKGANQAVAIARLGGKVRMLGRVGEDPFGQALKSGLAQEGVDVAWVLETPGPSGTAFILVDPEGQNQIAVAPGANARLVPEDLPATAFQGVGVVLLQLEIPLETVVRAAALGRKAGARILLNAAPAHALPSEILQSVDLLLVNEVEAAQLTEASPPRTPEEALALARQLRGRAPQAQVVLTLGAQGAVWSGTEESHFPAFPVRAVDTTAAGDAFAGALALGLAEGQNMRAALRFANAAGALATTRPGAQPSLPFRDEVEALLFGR
Text: HPLC of nucleotides (ATP consumption), nonlinear regression with substrate-inhibition equation on TspRK (ribokinase from Thermus sp. 2.9)

[2] = substrate: Nc1ncnc2c1ncn2[C@@H]1O[C@H](COP(=O)(O)OP(=O)(O)OP(=O)(O)O)[C@@H](O)[C@H]1O; assay: HPLC of nucleotides (ATP consumption), nonlinear regression, Michaelis-Menten; format: biochemical, Thermus sp. 2.9; conditions: 1 mM D-ribose, 5 mM MgCl2, 50 mM KCl, 10 mM KH2PO4, pH 8.0, 75 °C
Text: HPLC of nucleotides (ATP consumption), nonlinear regression, Michaelis-Menten on TspRK (ribokinase from Thermus sp. 2.9)

Q: Which “Ki, μM” value [1] does the source give for OC1OC[C@@H](O)[C@@H](O)[C@H]1O (stereo partly drawn) [D-ribose] here?
A: Its value is 1,700 ± 400 μM.

B1: TspRK (ribokinase from Thermus sp. 2.9) (Thermus sp. 2.9) (protein)
chain: T1 sequence (A0A0B0SD75 1-301)
notes: full-length, six-histidine tag (pET-23d+, NcoI/XhoI), codon-optimized synthetic gene; E. coli host
Q: What does the source list for B1?
A: Km [2]: 75 ± 11 µM; Vmax [2]: 13 µM/min/mg; kcat [2]: 6.8 ± 0.7 s⁻¹; kcat/Km [2]: 91000 M⁻¹ s⁻¹
